# Reference: patent US20210139545A1 (IBA, published 2021)
# B1: mutein m1-9 (designed binder)
# chain: EAGITGTWYNQLGSTFIVTAGADGALTGTYVTARGNAESRYVLTGRYDSAPATDGSGTALGWTVAWKNNYRNAHSATTWSGQYVGGAEARINTQWLLTSGTTEENAGYSTLVGHDTFTKVKPSAAS
# How the values were obtained:
# [1] = biological target: T1, E. coli alkaline phosphatase Strep-tag®II fusion protein (E. coli, UniProt P00634 22-471 = phosphatase); assay: ELISA, second experiment, mutein coated, BAP-StrepII titrated
# T1 construct: mature; also called BAP-StrepII; BAP-StrepIII
# [2] = biological target: T2, Green Fluorescent Protein with C-terminal di-tag3; assay: SPR Biacore T100, mutein immobilised at 170 RU, 1:1 global fit
# T2 construct: also called GFP-di-tag3
# Protocol: (§1) To achieve the immobilization at higher density, mutein m1-9 was used at a concentration of 20 μg/ml and mutein “1” was used at a concentration of 50 μg/ml. […] Prior to analysis, the fusion protein preparations were dialyzed against Buffer W (100 mM Tris-CI pH8, 150 mM NaCl, 1 mM EDTA), and checked via analytical size exclusion chromatography to be essentially free of aggregates (a content of max. 5% was accepted, in most cases it was below 1%) to ensure to measure the interaction of monovalent fusion proteins with immobilized streptavidin muteins only. […] Data were fitted using the kinetic global fit (Langmuir 1:1) and resulting on- and off-rates and deduced dissociation constants are shown in column 4, column 5 and column 6, respectively. BiaCore data were measured by Biaffin GmbH & Co KG, Kassel, Germany.
# [3] = biological target: T3, cytochrome b562 with C-terminal di-tag3 (E. coli); assay: as above
# T3 construct: also called Cytb562-di-tag3
# Protocol: as §1
# [4] = biological target: T4, Green Fluorescent Protein with C-terminal Strep-tagII (Aequorea victoria (Water jellyfish) …, UniProt P42212 1-237 = GFP, limits assumed); assay: as above
# T4 construct: also called GFP-StrepII; GFP-StrepIII
# Protocol: as §1
# [5] = biological target: T5, cytochrome b562 with C-terminally fused Strep-tagII (E. coli); assay: as above
# T5 construct: also called Cytb562-StrepII; Cytb562-StrepIII
# Protocol: as §1
# [6] = biological target: T4, Green Fluorescent Protein with …; assay: SPR Biacore
# Protocol: (§2) The resulting relative immobilized amounts are given in RU (arbitrary units) (column 3). To achieve the low density immobilization both muteins were applied applied at a concentration of 1 μg/ml and a flow rate of 10 μl/min. To achieve the immobilization at higher density, mutein m1-9 was used at a concentration of 20 μg/ml and mutein “1” was used at a concentration of 50 μg/ml. […] Prior to analysis, the fusion protein preparations were dialyzed against Buffer W (100 mM Tris-CI pH8, 150 mM NaCl, 1 mM EDTA), and checked via analytical size exclusion chromatography to be essentially free of aggregates (a content of max. 5% was accepted, in most cases it was below 1%) to ensure to measure the interaction of monovalent fusion proteins with immobilized streptavidin muteins only.
# [7] = biological target: T5, cytochrome b562 with C-terminally fused …; assay: SPR Biacore
# Protocol: as §2
# [8] = biological target: T2, Green Fluorescent Protein with …; assay: SPR Biacore T100, mutein immobilised at 4350 RU, 1:1 global fit
# Protocol: as §1
# [9] = biological target: T3, cytochrome b562 with C-terminal di-tag3; assay: as above
# Protocol: as §1
# [10] = biological target: T4, Green Fluorescent Protein with …; assay: as above
# Protocol: as §1
# [11] = biological target: T5, cytochrome b562 with C-terminally fused …; assay: as above
# Protocol: as §1
binder,measurement,setting,value
B1,(Δ(A405-A595)/Δt)max,[1],1700 mOD
same,Kd,[1],25 nM
same,Kd,[2],0.053 nM
same,koff,[2],1.5e-05 s⁻¹
same,kon,[2],280000 M⁻¹ s⁻¹
same,Kd,[3],0.014 nM
same,koff,[3],1.5e-05 s⁻¹
same,kon,[3],1e+06 M⁻¹ s⁻¹
same,Kd,[4],32 nM
same,koff,[4],0.0047 s⁻¹
same,kon,[4],150000 M⁻¹ s⁻¹
same,Kd,[5],586 nM
same,koff,[5],0.041 s⁻¹
same,kon,[5],70000 M⁻¹ s⁻¹
same,affinity increase relative to mutein “1”,[6],~10 fold
same,affinity increase relative to mutein “1”,[7],~30 fold
same,Kd,[8],0.079 nM
same,koff,[8],1.7e-05 s⁻¹
same,kon,[8],220000 M⁻¹ s⁻¹
same,Kd,[9],0.043 nM
same,koff,[9],1.9e-05 s⁻¹
same,kon,[9],440000 M⁻¹ s⁻¹
same,Kd,[10],23 nM
same,koff,[10],0.0038 s⁻¹
same,kon,[10],170000 M⁻¹ s⁻¹
same,Kd,[11],485 nM
same,koff,[11],0.025 s⁻¹
same,kon,[11],52000 M⁻¹ s⁻¹
